Measurements as given in patent US10883090B2, “P-coumaroyl-CoA:monolignol transferases” (WISCONSIN ALUMNI RESEARCH FOUNDATION, priority 2017, dated 2021).
Entries after “also recorded” stand apart in the source; their conditions may differ.

Legend:
[1] = Activity screening of cell-free translated PMT enzymes with feruloyl-CoA and monolignol mixture (LC-MS); format: biochemical; settings: fed monolignols (H, G, S) and feruloyl-CoA, FIGS. 3B, 4B, 10
Method: (§1) The active enzymes were produced using a wheat germ cell-free translation bilayer method previously reported (Makino, S., Beebe, E. T., Markley, J. L. and Fox, B. G. (2014) Cell-free protein synthesis for functional and structural studies. Methods in Molecular Biology, 1091, 161-178). Briefly, a translation reaction mixture consisting of 60 OD wheat germ extract (CellFree Sciences, Matsuyama, Japan), 0.04 mg/mL creatine kinase, 0.3 mM each amino acid, 12.6 mM HEPES-KOH, pH 7.8, 52.6 mM potassium acetate, 1.3 mM magnesium acetate, 0.2 mM spermidine HCl, 2.1 mM DTT, 0.6 mM ATP, 0.13 mM GTP, 8.4 mM creatine phosphate, and 0.003% sodium azide was prepared and combined with non-purified, fresh transcription at a ratio of 4 parts reaction mix to 1 part transcription. A feeding layer was prepared consisting of 0.3 mM each amino acid, 24 mM HEPES-KOH, pH 7.8, 100 mM potassium acetate, 2.5 mM magnesium acetate, 0.4 mM spermidine HCl, 4 mM DTT, 1.2 mM ATP, 0.25 mM GTP, 16 mM creatine phosphate, and 0.005% sodium azide, of which […] was added to wells of a U-bottom 96-well plate. 25 μL of the denser translation reaction mixture was carefully underlayed below the feeding layer, forming a bilayer. The plate was sealed and incubated at 22° C. for 18 h. The fully-diffused 150-μL bilayer reaction was then harvested and used for expression analysis by SDS-PAGE, and activity screening.
The enzyme mixture was screened for activity with p-coumaroyl-CoA (FIG. 2B) and feruloyl-CoA (FIG. 2C) and all three monolignols (FIG. 2A) (p-coumaryl, coniferyl, and sinapyl alcohol). Each enzyme was tested individually alongside positive and negative controls following the procedure previously reported (Withers, S., Lu, F., Kim, H., Zhu, Y., Ralph, J. and Wilkerson, C. G. (2012) Identification of a grass-specific enzyme that acylates monolignols with p-coumarate. Journal of Biological Chemistry, 287, 8347-8355). Briefly, the assay was initiated by adding 10 μL of wheat germ cell-free translation containing one of the PMT enzymes at a concentration of 1.5-2 μM to a reaction containing 50 mM sodium phosphate buffer, pH 6, 1 mM dithiothreitol (DTT), 1 mM CoA thioester, 1 mM monolignol mixture (each monolignol at 1 mM concentration), and deionized water in a final volume of 50 μL. After a 30-min incubation, the reaction was stopped by the addition of an equal volume 100 mM hydrochloric acid. Reaction products were solubilized by adjusting the solution to 50% methanol. An identical assay with no enzyme added was performed for every reaction. Samples were filtered through 0.2 μm filters prior to analysis by liquid chromatography-mass spectrometry (LC-MS). […]

[2] = Activity screening of cell-free translated PMT enzymes with p-coumaroyl-CoA and monolignol mixture (LC-MS); format: biochemical; settings: fed monolignols (H, G, S) and p-coumaroyl-CoA; FIGS. 3A, 4A, 9
Method: as §1, with “screening. […]” for “screening.”

Row | Molecule | feruloyl-CoA monolignol transferase activity (in words) [1] | feruloyl-CoA monolignol transferase activity (in words) ([1]; listed as SEQ ID NO:4) | p-coumaroyl-CoA:monolignol transferase activity (in words) [2] | feruloyl-CoA monolignol transferase activity (in words) ([1]; listed as SEQ ID NO:2)
1 | SbPMT: Sorghum bicolor (sorghum) p-coumaroyl-CoA:monolignol transferase, amino acid sequence SEQ ID NO:4, Sb09g002910.1 (protein, Sorghum bicolor) MGTIDDTAGLFPVTRTNRSLVPPSSATPQETLRLSVIDRVAGLRHLVRSLHVFAGGENKKQAAPPAKSLREALGKALVDYYPFAGRFVEEDGEVRVACTGEGAWFVEAAAACSLEEVRHLDHPMLIPKEELLPEPAPGVNPLDMPLMMQVTEFTCGGFVVGLISVHTIADGLGAGQFINAVADYARGGATAGAVTRPRITPIWARDVIPDPPKMPAPPPRLDLLDLVYFTTDLSPDHIAKVKSSYLESTGQRCSAFDVCVARTWQARVRALRLPDAAAPVHVCFFANTRHLLPATAAAPASGFYGNCFYTVKATRPSGEVAAADIVDVVRAIRDAKARLAADFARWAAGGFDRDPYELTFTYDSLFVSDWTRLGFLEADYGWGTPTHVVPFSYHPFMAVAVIGAPPAPKPGARIMTMCVQEQHLPEFQEQMNQPCS | limited to no feruloyl-CoA monolignol transferase activity; also recorded: little to no activity | no relevant activity in generating monolignol ferulates | active PMTs, coupling monolignols to p-coumaroyl-CoA; also recorded: found to produce monolignol p-coumarate conjugates | –
2 | PvPMT: Panicum virgatum (switchgrass) p-coumaroyl-CoA:monolignol transferase, amino acid sequence SEQ ID NO:2, Pavir.J00672.1 (protein, listed as Panicum virgatum) MGTIGFPVTRTSRSLVAPSSATPQETLHLSVIDRVAGLRHLVRSLHVFDGRRGEAAVRTPAETLRAALGKALVDYYPLAGRFVEEDGEVRVACTAGGAWFVEAAAACTLEEVKHLDHPMVIPKEDLLPEPAPDVNPLDMPLMMQVTEFACGGFVVGLISVHTIADGLGAGQFINAVADYARGLPRPRVLPVWARDVIPAPSRIVSPPPRFDLLDLRYFTVDLSPEHIAKVKSSFFEATGQRCSAFDVCVAKTWQSRVRALRLDGDDPARPIHVCFFANTRHLLPQLAPGFYGNCFYTVRATRPCGEVAAAGVVEVVRAIRDAKARLGADFARWAAGGFERDPYELTFSYDSLFVSDWTRLGFLEADYGWGAPAHVVPFSYHPFMAVAVIGAPPAPKPGARVMTMCVTEKHLPEFQEQMNAFAAGNHQ | limited to no feruloyl-CoA monolignol transferase activity; also recorded: little to no activity | – | active PMTs, coupling monolignols to p-coumaroyl-CoA; also recorded: found to produce monolignol p-coumarate conjugates | no relevant activity in generating monolignol ferulates
